Results from publication PMC4763255, “Diversity between mammalian tolloid proteinases: Oligomerisation and non-catalytic domains influence activity and specificity” (Scientific Reports, 2016).

T1: ΔN-chordin (UniProt Q9H2X0 127-955)
T1 construct: chordin, N-terminally truncated form called ΔN-chordin
T1 sequence (looked up): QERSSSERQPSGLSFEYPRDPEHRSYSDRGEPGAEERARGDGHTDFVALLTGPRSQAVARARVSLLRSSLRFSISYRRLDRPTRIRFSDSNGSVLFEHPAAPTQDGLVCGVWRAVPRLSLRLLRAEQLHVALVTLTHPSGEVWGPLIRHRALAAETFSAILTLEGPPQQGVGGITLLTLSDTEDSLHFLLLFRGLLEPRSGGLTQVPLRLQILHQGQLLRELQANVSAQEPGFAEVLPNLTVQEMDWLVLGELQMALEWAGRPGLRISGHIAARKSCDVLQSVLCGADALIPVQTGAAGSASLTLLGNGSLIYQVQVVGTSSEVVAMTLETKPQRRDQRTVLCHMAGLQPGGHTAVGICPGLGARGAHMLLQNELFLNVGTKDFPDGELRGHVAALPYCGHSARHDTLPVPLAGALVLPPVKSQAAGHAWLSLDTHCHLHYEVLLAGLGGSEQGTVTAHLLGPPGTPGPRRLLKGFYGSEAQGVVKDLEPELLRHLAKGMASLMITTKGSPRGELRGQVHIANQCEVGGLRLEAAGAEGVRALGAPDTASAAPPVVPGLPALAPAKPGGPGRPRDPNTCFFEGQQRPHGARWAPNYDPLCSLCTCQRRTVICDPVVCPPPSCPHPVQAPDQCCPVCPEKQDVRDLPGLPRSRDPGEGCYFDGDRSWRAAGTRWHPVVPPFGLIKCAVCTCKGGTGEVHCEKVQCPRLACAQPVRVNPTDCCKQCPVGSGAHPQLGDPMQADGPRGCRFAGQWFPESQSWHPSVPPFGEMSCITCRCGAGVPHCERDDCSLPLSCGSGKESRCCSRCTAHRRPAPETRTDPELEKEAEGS


Target: T1, ΔN-chordin
Assay: SPR; tolloid fragments immobilised on a GLC chip by amine coupling, ΔN-chordin injected as analyte at increasing concentrations; ProteOn XPR36; 10 mM HEPES, 150 mM NaCl, 2 mM CaCl2, 0.05% Tween 20, pH 7.4, 25 °C; 1:1 Langmuir model; triplicate
Conditions: both partners purified

| Binder | Kd [nM] |
| --- | --- |
| mTLD CUB1-CUB2-EGF1 (domain or fragment, UniProt P13497 322-588, looked up, mammalian tolloid (mTLD), product of the Bmp1 gene; domains CUB1, CUB2 and EGF1 (shared with BMP-1); Cloned at OPPF-UK in pOPINTTGneo; also called mTLD-C1C2E1; C1C2E1 from mTLD/BMP1) CGETLQDSTGNFSSPEYPNGYSAHMHCVWRISVTPGEKIILNFTSLDLYRSRLCWYDYVEVRDGFWRKAPLRGRFCGSKLPEPIVSTDSRLWVEFRSSSNWVGKGFFAVYEAICGGDVKKDYGHIQSPNYPDDYRPSKVCIWRIQVSEGFHVGLTFQSFEIERHDSCAYDYLEVRDGHSESSTLIGRYCGYEKPDDIKSTSSRLWLKFVSDGSINKAGFAVNFFKEVDECSRPNRGGCEQRCLNTLGSYKCSCDPGYELAPDKRRCE | 0.278 |
| TLL1 CUB1-CUB2-EGF1 (domain or fragment, UniProt O43897 349-615, looked up, mammalian tolloid like-1 (TLL-1); domains CUB1, CUB2 and EGF1; Cloned at OPPF-UK in pOPINTTGneo; also called TLL1-C1C2E1; C1C2E1 from TLL-1) CGETLQESNGNLSSPGFPNGYPSYTHCIWRVSVTPGEKIVLNFTTMDLYKSSLCWYDYIEVRDGYWRKSPLLGRFCGDKLPEVLTSTDSRMWIEFRSSSNWVGKGFAAVYEAICGGEIRKNEGQIQSPNYPDDYRPMKECVWKITVSESYHVGLTFQSFEIERHDNCAYDYLEVRDGTSENSPLIGRFCGYDKPEDIRSTSNTLWMKFVSDGTVNKAGFAANFFKEEDECAKPDRGGCEQRCLNTLGSYQCACEPGYELGPDRRSCE | 0.057 ± 0.003 |
| TLL2 CUB1-CUB2-EGF1 (domain or fragment, human, UniProt Q9Y6L7 351-617, looked up, mammalian tolloid like-2 (TLL-2), human; domains CUB1, CUB2 and EGF1; Cloned at OPPF-UK in pOPINTTGneo; also called TLL2-C1C2E1; C1C2E1 from TLL-2) CGETLQDTTGNFSAPGFPNGYPSYSHCVWRISVTPGEKIVLNFTSMDLFKSRLCWYDYVEVRDGYWRKAPLLGRFCGDKIPEPLVSTDSRLWVEFRSSSNILGKGFFAAYEATCGGDMNKDAGQIQSPNYPDDYRPSKECVWRITVSEGFHVGLTFQAFEIERHDSCAYDYLEVRDGPTEESALIGHFCGYEKPEDVKSSSNRLWMKFVSDGSINKAGFAANFFKEVDECSWPDHGGCEHRCVNTLGSYKCACDPGYELAADKKMCE | 0.247 ± 0.26 |
| mTLD CUB4-CUB5 (domain or fragment, UniProt P13497 747-976, looked up, mammalian tolloid (mTLD), product of the Bmp1 gene; domains CUB4 and CUB5; Cloned at OPPF-UK in pOPINTTGneo; also called mTLD-C4C5; C4C5 from mTLD) CDHKVTSTSGTITSPNWPDKYPSKKECTWAISSTPGHRVKLTFMEMDIESQPECAYDHLEVFDGRDAKAPVLGRFCGSKKPEPVLATGSRMFLRFYSDNSVQRKGFQASHATECGGQVRADVKTKDLYSHAQFGDNNYPGGVDCEWVIVAEEGYGVELVFQTFEVEEETDCGYDYMELFDGYDSTAPRLGRYCGSGPPEEVYSAGDSVLVKFHSDDTITKKGFHLRYTST | 0.19 ± 0.02 |
| TLL1 CUB4-CUB5 (domain or fragment, UniProt O43897 774-1003, looked up, mammalian tolloid like-1 (TLL-1); domains CUB4 and CUB5; Cloned at OPPF-UK in pOPINTTGneo; also called TLL1-C4C5; C4C5 from TLL-1) CEQKIHSPSGLITSPNWPDKYPSRKECTWEISATPGHRIKLAFSEFEIEQHQECAYDHLEVFDGETEKSPILGRLCGNKIPDPLVATGNKMFVRFVSDASVQRKGFQATHSTECGGRLKAESKPRDLYSHAQFGDNNYPGQVDCEWLLVSERGSRLELSFQTFEVEEEADCGYDYVELFDGLDSTAVGLGRFCGSGPPEEIYSIGDSVLIHFHTDDTINKKGFHIRYKSI | 0.056 ± 0.01 |
| TLL2 CUB4-CUB5 (domain or fragment, human, UniProt Q9Y6L7 776-1005, looked up, mammalian tolloid like-2 (TLL-2), human; domains CUB4 and CUB5; Cloned at OPPF-UK in pOPINTTGneo; also called TLL2-C4C5; C4C5 from TLL-2) CAHKISSVEGTLASPNWPDKYPSRRECTWNISSTAGHRVKLTFNEFEIEQHQECAYDHLEMYDGPDSLAPILGRFCGSKKPDPTVASGSSMFLRFYSDASVQRKGFQAVHSTECGGRLKAEVQTKELYSHAQFGDNNYPSEARCDWVIVAEDGYGVELTFRTFEVEEEADCGYDYMEAYDGYDSSAPRLGRFCGSGPLEEIYSAGDSLMIRFRTDDTINKKGFHARYTST | 0.25 ± 0.02 |

Target: the molecule itself
Assay: negative-stain electron microscopy, single-particle analysis; TLL-2 ~10 ug/ml in 10 mM HEPES, 500 mM NaCl, 2 mM CaCl2, pH 7.4 on carbon-coated grids, 4% uranyl acetate
Conditions: not given

| Binder | stoichiometry N |
| --- | --- |
| human mammalian tolloid like-2 (TLL-2) (enzyme, UniProt Q9Y6L7 26-1015, looked up, N-linked glycans (5 predicted from primary sequence; shift with PNGaseF), purified as a secreted protein; predicted mass of a monomer printed as 98.58 kDa; also called mTLL2; mTLL-2) ATTSRTERIWPGGVIPYVIGGNFTGSQRAIFKQAMRHWEKHTCVTFIERTDEESFIVFSYRTCGCCSYVGRRGGGPQAISIGKNCDKFGIVAHELGHVVGFWHEHTRPDRDQHVTIIRENIQPGQEYNFLKMEAGEVSSLGETYDFDSIMHYARNTFSRGVFLDTILPRQDDNGVRPTIGQRVRLSQGDIAQARKLYKCPACGETLQDTTGNFSAPGFPNGYPSYSHCVWRISVTPGEKIVLNFTSMDLFKSRLCWYDYVEVRDGYWRKAPLLGRFCGDKIPEPLVSTDSRLWVEFRSSSNILGKGFFAAYEATCGGDMNKDAGQIQSPNYPDDYRPSKECVWRITVSEGFHVGLTFQAFEIERHDSCAYDYLEVRDGPTEESALIGHFCGYEKPEDVKSSSNRLWMKFVSDGSINKAGFAANFFKEVDECSWPDHGGCEHRCVNTLGSYKCACDPGYELAADKKMCEVACGGFITKLNGTITSPGWPKEYPTNKNCVWQVVAPAQYRISLQFEVFELEGNDVCKYDFVEVRSGLSPDAKLHGRFCGSETPEVITSQSNNMRVEFKSDNTVSKRGFRAHFFSDKDECAKDNGGCQHECVNTFGSYLCRCRNGYWLHENGHDCKEAGCAHKISSVEGTLASPNWPDKYPSRRECTWNISSTAGHRVKLTFNEFEIEQHQECAYDHLEMYDGPDSLAPILGRFCGSKKPDPTVASGSSMFLRFYSDASVQRKGFQAVHSTECGGRLKAEVQTKELYSHAQFGDNNYPSEARCDWVIVAEDGYGVELTFRTFEVEEEADCGYDYMEAYDGYDSSAPRLGRFCGSGPLEEIYSAGDSLMIRFRTDDTINKKGFHARYTSTKFQDALHMKK | 2 |
